# Test results as given in patent US20240209086A1 (PETMEDIX, published 2024).
# Substitutions are numbered along the chain they refer to.
# B1: PMX158 (monospecific anti-canine CD3, canine IgG-B effector function deficient Fc) (antibody, V domains shown)
# VH: ELTLQESGPGLVKPSQTLSLTCVVSGGSVTRSYYWNWIRQRPGRGLEWMGYWTGTTNYNPAFQGRISITADTAKNQCSLQLSSMTTEDTAVYYCAREGGKLLGAFGHWGQGTLVTVSS
# VL: SYVLTQLPSKNVTLKQPAHITCGGDKIGSKSVHWYQQKLGQAPVLIIYYDSSRLTGIPERFSGANSGNTATLTISGALAEDEADYYCQVWDSSAKASVFGGGTHLTVL
# B2: PMX163 (monospecific anti-canine CD3, canine IgG-B effector function deficient Fc) (antibody, V domains shown)
# VH: ELALQESGPGLVRPSQTLSLTCVVSGGSVTRSYYWNWIRQRPGRGLEWMGYWTGTTIYNPAFQGRISITVDTAKNQFSLHLISMTTEDTAVYYCGREGGSSLGAIAYWGQGTRVTVSS
# VL: B1 VL with K26N, L54P, S97A
# B3: PMX165 (monospecific anti-canine CD3, canine IgG-B effector function deficient Fc) (antibody)
# heavy: EVQLVESGGDLVKPGGSLRLSCVASGFNFSASHMSWVRQAPGKGLQWVAYITNAGGRISYADAVKGRFTISRDNAKNTLYLQMSSLRVEDTAVYYCATERPGRRMGLKDYGMDYWGHGTSLFVSSASTTAPSVFPLAPSCGSTSGSTVALACLVSGYFPEPVTVSWNSGSLTSGVHTFPSVLQSSGLYSLSSMVTVPSSRWPSETFTCNVAHPASKTKVDKPVPKRENGRVPRPPDCPKCPAPESLGGPSVFIFPPKPKDTLLIARTPEVTCVVVDLGREDPEVQISWFVDGKQMQTAKTQPREEQFNGTYRVVSVLPIGHQDWLKGKQFTCKVNHIGLPSPIERTISKARGQAHQPSVYVLPPSREELSKNTVSLTCLIKDFFPPDIDVEWQSNGQQEPESKYRTTPPQLDEDGSYFLYSKLSVDKSRWQRGDTFICAVMHEALHNHYTQKSLSHSPGK
# VL: B1 VL with K26N, L54P
# B4: PMX160 (monospecific anti-canine CD3, canine IgG-B effector function deficient Fc) (antibody)
# heavy: EVQMVESGGDLVKPGGSLRFSCVASGFTFSSYHMSWVRQAPGKGLQWVAYINSGGSRTSYADAVKGRFTISRDNAKNTLYLQMNSLRAEDTAVYYCASGRSPPPLGSFDYGLDYWGHGTSLFVSSASTTAPSVFPLAPSCGSTSGSTVALACLVSGYFPEPVTVSWNSGSLTSGVHTFPSVLQSSGLYSLSSMVTVPSSRWPSETFTCNVAHPASKTKVDKPVPKRENGRVPRPPDCPKCPAPESLGGPSVFIFPPKPKDTLLIARTPEVTCVVVDLGREDPEVQISWFVDGKQMQTAKTQPREEQFNGTYRVVSVLPIGHQDWLKGKQFTCKVNHIGLPSPIERTISKARGQAHQPSVYVLPPSREELSKNTVSLTCLIKDFFPPDIDVEWQSNGQQEPESKYRTTPPQLDEDGSYFLYSKLSVDKSRWQRGDTFICAVMHEALHNHYTQKSLSHSPGK
# VL: B1 VL with K26N, L54P, S97W, G101E, H104Q
# B5: PMX159 (monospecific anti-canine CD3, canine IgG-B effector function deficient Fc) (antibody, V domains shown)
# VH: ELTLQESGPGLVKPSQTLSLTCVVSGGSVTRSYYWNWIRQRPGRGLEWMGYWTGSTIYNPTFQGRISITADTAKSQFSLQLRSMTTEDTAMYFCAREGGKSLGAFAYWGQGTLVTVSS
# VL: B1 VL with S31N, L45M, L54P, S97A
# B6: PMX162 (monospecific anti-canine CD3, canine IgG-B effector function deficient Fc) (antibody)
# heavy: EMQLVESGGDLVKPGGSLRLSCVASGFTFSTYHMSWVRQAPGKGLQWVAYSNSGGTRTYYADAVKGRFTISRDNVKNTLYLQMNSLRAEDTAVYYCASEGSGGGRYGFKDYGMDYWGHGTSLFVSTASTTAPSVFPLAPSCGSTSGSTVALACLVSGYFPEPVTVSWNSGSLTSGVHTFPSVLQSSGLYSLSSMVTVPSSRWPSETFTCNVAHPASKTKVDKPVPKRENGRVPRPPDCPKCPAPESLGGPSVFIFPPKPKDTLLIARTPEVTCVVVDLGREDPEVQISWFVDGKQMQTAKTQPREEQFNGTYRVVSVLPIGHQDWLKGKQFTCKVNHIGLPSPIERTISKARGQAHQPSVYVLPPSREELSKNTVSLTCLIKDFFPPDIDVEWQSNGQQEPESKYRTTPPQLDEDGSYFLYSKLSVDKSRWQRGDTFICAVMHEALHNHYTQKSLSHSPGK
# VL: B1 VL with K26N, L54P, S97W, G101E, H104Q
# B7: PMX167 (monospecific anti-canine CD3, canine IgG-B effector function deficient Fc) (antibody, V domains shown)
# VH: EVKLVESGGDLVKPGGSLRLSCMASGFTLNNYYMSWVRQAPGKGLQWVAYIKSGGSDTSYVDAVKGRFTISRDNAKNTLHLQMNSLRVEDTAVYYCATDGYIWAWGQGTLVTVSS
# VL: B1 VL with K26N, S51N, L54P, N65K, A94S, S97Y, G101S, H104Q
# B8: PMX157 (monospecific anti-canine CD3, canine IgG-B effector function deficient Fc) (antibody, V domains shown)
# VH: ELTLQESGPGLVKPSQTLSLTCVVSGGSVTSSYFWNWIRQRPGRGLEWMGYWTGSTIYSPAFQGRISITPDTAKNQFSLQLSSMTTEDTAVYYCSREGGSTLGAFAYWGQGTLVTVSS
# VL: B1 VL with L54P
# B9: PMX166 (monospecific anti-canine CD3, canine IgG-B effector function deficient Fc) (antibody, V domains shown)
# VH: B8 VH
# VL: B1 VL with K26N, L54P
# B10: PMX168 (monospecific anti-canine CD3, canine IgG-B effector function deficient Fc) (antibody, V domains shown)
# VH: B1 VH
# VL: B1 VL with L54P
# B11: PMX173 (monospecific anti-canine CD3, canine IgG-B effector function deficient Fc) (antibody)
# heavy: B6 heavy with M2V, N52H, V75G
# VL: B1 VL with K26N, L54P, S97W, G101E, H104Q
# B12: PMX178 (monospecific anti-canine CD3, canine IgG-B effector function deficient Fc) (antibody, V domains shown)
# VH: B2 VH
# VL: B1 VL with K26N, S29R, L54P, S97A
# Molecular target: canine CD3 on canine T cells (canine PBMC) (canine, UniProt P27597 22-202)
# Sequence (P27597 22-202 limits assumed, chain 1 of 3): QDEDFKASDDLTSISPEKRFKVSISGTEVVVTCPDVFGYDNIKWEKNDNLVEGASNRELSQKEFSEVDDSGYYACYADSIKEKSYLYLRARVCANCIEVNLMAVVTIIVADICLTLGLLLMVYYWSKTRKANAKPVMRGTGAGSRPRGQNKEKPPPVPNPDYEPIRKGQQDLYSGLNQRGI
# Sequence (chain, as listed by the source limits assumed, chain 2 of 3): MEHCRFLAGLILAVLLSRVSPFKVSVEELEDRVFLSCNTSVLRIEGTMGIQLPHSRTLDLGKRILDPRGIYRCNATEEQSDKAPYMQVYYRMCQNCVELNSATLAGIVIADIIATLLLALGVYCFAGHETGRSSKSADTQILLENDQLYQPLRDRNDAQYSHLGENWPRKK
# Sequence (chain, as listed by the source limits assumed, chain 3 of 3): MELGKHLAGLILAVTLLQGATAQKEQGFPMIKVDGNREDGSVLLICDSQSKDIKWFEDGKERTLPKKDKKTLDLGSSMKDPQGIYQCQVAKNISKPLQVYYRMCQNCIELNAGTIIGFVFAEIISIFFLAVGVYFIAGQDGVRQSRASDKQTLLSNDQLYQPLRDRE
# Assay: cell-based or functional assay
"CD25 Activation, Day 6, IS","CD25 Activation, Day 6, PB","CD25 Activation, Day 9, IS","CD25 Activation, Day 9, PB","IFNy Concentration pg/ml, Day 6, IS","IFNy Concentration pg/ml, Day 9, IS","IFNy Concentration pg/ml, Day 9, PB","Ki67 Proliferation, Day 6, IS","Ki67 Proliferation, Day 6, PB","Ki67 Proliferation, Day 9, IS",Binder
13.1,9.65,5.45,12.3,48.2 pg/mL,88.3 pg/mL,2440 pg/mL,2.63,0.54,0.45,B1
13.3,18.8,10.1,14.6,56.2 pg/mL,145 pg/mL,3770 pg/mL,4.91,0.3,0.71,B2
12.1,13.4,10.4,23.6,74.6 pg/mL,108 pg/mL,1370 pg/mL,1.67,0.26,1.3,B3
10.6,9.42,7.14,5.98,36.5 pg/mL,114 pg/mL,1460 pg/mL,0.84,0.12,1.87,B4
11.3,11.5,9.13,13.1,137 pg/mL,262 pg/mL,3050 pg/mL,1.69,0.37,1.28,B5
16,8.64,8.75,10.4,61.1 pg/mL,89.2 pg/mL,330 pg/mL,1.73,0.36,0.51,B6
7.09,4.93,11.6,12.8,63.5 pg/mL,802 pg/mL,1290 pg/mL,1.55,0,2.66,B7
9.65,11.6,9.96,8.72,44.4 pg/mL,209 pg/mL,3140 pg/mL,1.24,0.4,0.85,B8
11.4,14.5,9.15,22,67.6 pg/mL,112 pg/mL,2780 pg/mL,2.77,0.95,0.92,B9
7.17,13.4,8.87,6.52,61.1 pg/mL,301 pg/mL,2450 pg/mL,1.57,0.15,1.53,B10
8.5,13.3,9.37,11.5,56.7 pg/mL,125 pg/mL,1110 pg/mL,1.01,0.57,1.38,B11
9.79,20.5,8.41,9.23,24.7 pg/mL,223 pg/mL,2110 pg/mL,0.84,1.13,1.83,B12

# Same assay, conditions: not given
row,"Ki67 Proliferation, Day 9, PB",Binder
1,0,B1
2,0.75,B2
3,0,B3
4,0.33,B4
5,0,B5
6,0.43,B6
7,0.25,B7
8,0.34,B8
9,1.28,B9
10,0.36,B10
11,0.34,B11
12,0.16,B12
